Primed or numbered codes have the meaning given here. Where no end group is shown, it is not given here. [ ]: non-standard residue; d: D form. The star is where a group is joined. Psu″ = N-propylsuccinimide on the Cys thiol (Cys(Psu)), CCCN1C(=O)CC(*)C1=O; Psu(3) = N-propylsuccinimide on Cys S, CCCN1C(=O)CC(*)C1=O; Hsu = N-hexylsuccinimide on Cys S, CCCCCCN1C(=O)CC(*)C1=O; Psu = N-propylsuccinimide (on the Cys sulfur); 2Nal = N[C@@H](Cc1ccc2ccccc2c1)C(=O)O; d2Nal = N[C@H](Cc1ccc2ccccc2c1)C(=O)O; Cyclohexanecarbonyl = O=C(C1CCCCC1)*; Myristoyl = CCCCCCCCCCCCCC(=O)*; Cys(Psu) = not defined here; Decanoyl = CCCCCCCCCC(=O)*; Ac6c = NC1(C(=O)O)CCCCC1; Nle = CCCC[C@H](N)C(=O)O; Orn = NCCC[C@H](N)C(=O)O; Hexanoyl = CCCCCC(=O)*; Aib = CC(C)(N)C(=O)O
T1: human recombinant GIP receptor (human, UniProt P48546 22-466)
T1 construct: whole, on cells; Assayed as washed membranes of CHO-K1 cells expressing the receptor; also called hGIP receptor
T1 sequence (looked up): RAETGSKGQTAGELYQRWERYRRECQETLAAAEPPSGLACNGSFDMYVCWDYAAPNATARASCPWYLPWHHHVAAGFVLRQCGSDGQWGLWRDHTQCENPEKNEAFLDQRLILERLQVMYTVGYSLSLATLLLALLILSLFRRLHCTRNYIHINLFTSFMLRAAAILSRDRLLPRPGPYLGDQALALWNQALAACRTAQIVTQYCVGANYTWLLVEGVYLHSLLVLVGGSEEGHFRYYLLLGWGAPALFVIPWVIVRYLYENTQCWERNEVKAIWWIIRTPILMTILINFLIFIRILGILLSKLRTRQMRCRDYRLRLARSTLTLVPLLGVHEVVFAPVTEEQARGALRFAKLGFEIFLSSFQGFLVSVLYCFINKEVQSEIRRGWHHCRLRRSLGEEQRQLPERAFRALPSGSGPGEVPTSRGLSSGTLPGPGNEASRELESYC

B1: [Ac-Phe^6, A6c^7, Cys(Psu)^31]hGIP(6-31)-NH2 (peptide)
peptide: FXSDYSIAMDKIHQQDFVNWLLAQKC
modifications: N-terminal acetyl (Ac) on Phe 6; A6c at 7; Cys(Psu) at 31; hGIP numbering; C-terminal amide
notes: Synthetic analogue of human GIP
B2: (Ac-4Hyp^3, A6c^7)hGIP(3-42)-OH (peptide)
peptide: XGTFXSDYSIAMDKIHQQDFVNWLLAQKGKKNDWKHNITQ
modifications: N-terminal acetyl (Ac); 4Hyp (4-hydroxyproline) at 3; A6c at 7; hGIP numbering; C-terminal free acid
notes: as for B1
B3: (4Hppa^2, 4Hyp^3, A6c^7)hGIP(2-42)-OH (peptide)
peptide: XXGTFXSDYSIAMDKIHQQDFVNWLLAQKGKKNDWKHNITQ
modifications: 4Hppa (3-(4-hydroxyphenyl)propionic acid) at 2; 4Hyp at 3; A6c at 7; hGIP numbering; C-terminal free acid
notes: as for B1
B4: (Ac-A6c^7, Cys(Psu)^31]hGIP(7-34)-NH2 (peptide)
peptide: XSDYSIAMDKIHQQDFVNWLLAQKCKKN
modifications: N-terminal acetyl (Ac); A6c at 7; Cys(Psu) at 31; hGIP numbering; C-terminal amide
notes: as for B1
B5: (A5c^7, Nle^14)hGIP(6-30)-NH2 (peptide)
peptide: FXSDYSIAXDKIHQQDFVNWLLAQK
modifications: A5c (1-amino-1-cyclopentanecarboxylic acid) at 7; Nle (norleucine) at 14; hGIP numbering; C-terminal amide
notes: as for B1
B6: (Ac-A6c^7, Gln^43)hGIP(7-43)-OH (peptide)
peptide: XSDYSIAMDKIHQQDFVNWLLAQKGKKNDWKHNITQQ
modifications: N-terminal acetyl (Ac); A6c at 7; added Gln at 43; hGIP numbering; C-terminal free acid
notes: Synthetic analogue of human GIP with an added residue 43
B7: [Ac-A6c^7, Orn^31(N-C(O)-(CH2)12-CH3)]hGIP(7-42)-OH (peptide)
peptide: Ac-[Ac6c]SDYSIAMDKIHQQDFVNWLLAQK[Orn](Myristoyl)KKNDWKHNITQ-OH
notes: Synthetic analogue of human GIP; also called [Ac-Ac6c^7, Orn(N-C(O)-(CH2)12-CH3)^31]hGIP(7-42)-OH
B8: [Ac-A6c^7, Cys(Psu)^31]hGIP(7-31)-NH2 (peptide)
peptide: XSDYSIAMDKIHQQDFVNWLLAQKC
modifications: N-terminal acetyl (Ac); A6c at 7; Cys(Psu) at 31; hGIP numbering; C-terminal amide
notes: as for B1

Target: T1, human recombinant GIP receptor
Assay: radioligand competition, [125I]GIP on membranes of CHO-K1 cells expressing human GIP receptor

Binder	Ki
Ac-DYSIAMDKIHQQDFVNWLLAQKGK[Cys(Psu)]NDWKHNITQ-OH (reading uncertain, Synthetic analogue of human GIP) [[Ac-Asp^9, Cys(Psu)^33]hGIP(9-42)-OH]	472 nM
Decanoyl-[Ac6c]SDYSIAMDKIHQQDFVNWLLAQKGKK[Orn](Decanoyl)DWKHNITQ-OH (Synthetic analogue of human GIP) [[CH3-(CH2)8-C(O)-A6c^7, Orn^34(N-C(O)-(CH2)8-CH3)]hGIP(7-42)-OH]	164 nM
FXSDYSIAXDKIHQQDFVNWLLAQK (A6c at 7; Nle at 14; hGIP numbering; C-terminal amide, Synthetic analogue of human GIP) [(A6c^7, Nle^14)hGIP(6-30)-NH2]	212 nM
F[Ac6c]SDYSIAMDKIHQQDFVNWLLAQKC(Psu(3))KKNDWKHNITQ-OH (Synthetic analogue of human GIP) [[A6c^7, Cys(Psu)^31]hGIP(6-42)-OH]	277 nM
Cyclohexanecarbonyl-SDYSIAMDKIHQQDFVNWLLAQK[Cys(Psu)]KKNDWKHNITQ-OH (reading uncertain, Synthetic analogue of human GIP) [[Chc-Ser^8, Cys(Psu)^31]hGIP(8-42)-OH]	403 nM
[Ac6c]SDYSIAMDKIHQQDFVNWLLAQKGKK[Orn](Decanoyl)DWKHNITQ-OH (Synthetic analogue of human GIP) [[A6c^7, Orn^34(N-C(O)-(CH2)8-CH3)]hGIP(7-42)-OH]	274 nM
B1	77.5 nM
Ac-[Ac6c]SDYSIAMDKIHQQDFVNWLLAQK[d2Nal]KKNDWKHNITQ-OH (X stands for the non-natural residues) [(Ac-A6c^7, D-2Nal^31)hGIP(7-42)-OH]	159 nM
Ac-[Ac6c]SDYSIAMDKIHQQDFVNWLLAQKC(Psu(3))KKNDWKHNITQ-OH (Synthetic analogue of human GIP) [[Ac-A6c^7, Cys(Psu)^31]hGIP(7-42)-OH]	963 nM
Ac-[Ac6c]SDYSIAMDKIHQQDFVNWLLAQKGKC(Psu)NDWKHNITQ-OH (Synthetic analogue of human GIP) [[Ac-A6c^7, Cys(Psu)^33]hGIP(7-42)-OH]	417 nM
Ac-[Ac6c]SDYSIAMDKIHQQDFVNWLLAQKGKKC(Psu)DWKHNITQ-OH (Synthetic analogue of human GIP) [[Ac-A6c^7, Cys(Psu)^34]hGIP(7-42)-OH]	735 nM
Ac-[Ac6c]SDYSIAMDKIHQQDFVNWLLAQKGKKNDWKC(Psu″)NITQ-OH (Synthetic analogue of human GIP) [[Ac-A6c^7, Cys(Psu)^38]hGIP(7-42)-OH]	333 nM
Ac-[Ac6c]SDYSIAMDKIHQQDFVNWLLAQKGC(Psu)KNDWKHNITQ-OH (Synthetic analogue of human GIP) [[Ac-A6c^7, Cys(Psu)^32]hGIP(7-42)-OH]	687 nM
Ac-[Ac6c]SDYSIAMDKIHQQDFVNWLLAQKGKKNDWKHNC(Psu″)TQ-OH (Synthetic analogue of human GIP) [[Ac-A6c^7, Cys(Psu)^40]hGIP(7-42)-OH]	532 nM
Ac-[Ac6c]SDYSIAMDKIHQQDFVNWLLAQKGKKNDC(Psu)KHNITQ-OH (Synthetic analogue of human GIP) [[Ac-A6c^7, Cys(Psu)^36]hGIP(7-42)-OH]	442 nM
Ac-[Ac6c]SDYSIAMDKIHQQDFVNWLLAQKGKKNDWKHC(Psu″)ITQ-OH (Synthetic analogue of human GIP) [[Ac-A6c^7, Cys(Psu)^39]hGIP(7-42)-OH]	75.7 nM
Ac-[Ac6c]SDYSIAMDKIHQQDFVNWLLAQKGKKNDWC(Psu″)HNITQ-OH (Synthetic analogue of human GIP) [[Ac-A6c^7, Cys(Psu)^37]hGIP(7-42)-OH]	127 nM
Ac-[Ac6c]SDYSIAMDKIHQQDFVNWLLAQKGKKNC(Psu)WKHNITQ-OH (Synthetic analogue of human GIP) [[Ac-A6c^7, Cys(Psu)^35]hGIP(7-42)-OH]	486 nM

Binder	Ki
FXSDYSIAMDKIHQQDFVNWLLAQKC (A6c at 7; Cys(Psu) at 31; hGIP numbering; C-terminal amide, Synthetic analogue of human GIP) [[A6c^7, Cys(Psu)^31]hGIP(6-31)-NH2]	101 nM
FXSDYSIAMDKIHQQDFVNWLLAQK (N-terminal acetyl (Ac) on Phe 6; A6c at 7; hGIP numbering; C-terminal amide, Synthetic analogue of human GIP) [(Ac-Phe^6, A6c^7)hGIP(6-30)-NH2]	68.5 nM
B2	546 nM
[Ac6c]SDYSIAMDKIHQQDFVNWLLAQKC(Hsu)KKNDWKHNITQ-OH (Synthetic analogue of human GIP) [[A6c^7, Cys(Hsu)^31]hGIP(7-42)-OH]	772 nM
FISDY[Aib]IA[Nle]DKIHQQDFVNWLLAQK-NH2 (Synthetic analogue of human GIP) [(Aib^11, Nle^14)hGIP(6-30)-NH2]	170 nM
B3	294 nM
XEGTFISDYXIAMDKIHQQDFVNWLLAQKGKKNDWKHNITQ (4Hppa at 2; A6c at 11; hGIP numbering; C-terminal free acid, Synthetic analogue of human GIP) [(4Hppa^2, A6c^11)hGIP(2-42)-OH]	91.8 nM
XPGTFISDYSIAXDKIHQQDFVNWLLAQKGKKNDWKHNITQ (4Hppa at 2; Pro at 3; Nle at 14; hGIP numbering; C-terminal free acid, Synthetic analogue of human GIP) [(4Hppa^2, Pro^3, Nle^14)hGIP(2-42)-OH]	800 nM
XEGTFISDYSIXMDKIHQQDFVNWLLAQKGKKNDWKHNITQ (4Hppa at 2; Aib at 13; hGIP numbering; C-terminal free acid, Synthetic analogue of human GIP) [(4Hppa^2, Aib^13)hGIP(2-42)-OH)]	12.9 nM
XEGTFISDYSIAXDKIHQQDFVNWLLAQKGKKNDWKHNITQ (4Hppa at 2; A6c at 14; hGIP numbering; C-terminal free acid, Synthetic analogue of human GIP) [(4Hppa^2, A6c^14)hGIP(2-42)-OH]	50.4 nM
Hexanoyl-SDYSIAMDKIHQQDFVNWLLAQK[Cys(Psu)]KKNDWKHNITQ-OH (reading uncertain, Synthetic analogue of human GIP) [[CH3-(CH2)4-C(O)-Ser^8, Cys(Psu)^31]hGIP(8-42)-OH]	205 nM
B4	115 nM
B5	734 nM
B6	7.92 nM
Ac-F[Ac6c]SDYSIAMDKIHQQDFVNWLLAQKC(Psu″)KKNDWKHNITQ-OH (Synthetic analogue of human GIP) [[Ac-Phe^6, A6c^7, Cys(Psu)^31]hGIP(6-42)-OH]	574 nM
B7	178 nM
B8	48.3 nM
Ac-[Ac6c]SDYSIAMDKIHQQDFVNWLLAQK[2Nal]KKNDWKHNITQ-OH (Synthetic analogue of human GIP) [(Ac-A6c^7, 2Nal^31)hGIP(7-42)-OH]	194 nM
